# In the nanobody polyreactivity screen of Harvey et al. (2022):
# Assay: yeast display, Sf9 membrane polyspecificity reagent, FACS + sequencing; frameworks hold sequencing errors
# Summary of the method: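 Nanobodies came from a synthetic yeast display library in Saccharomyces cerevisiae BJ5465, induced with galactose for 36–48 hours and stained for 1 hour at 4 °C with 10% biotinylated, detergent-solubilized Sf9 membrane reagent. Cells were enriched on streptavidin microbeads and then FACS-sorted, with low and high (top ~1%) gates set on anti-HA fluorescence for expression and streptavidin fluorescence for reagent binding. Each polyreactivity label reflects the gate a clone came from. Genes were amplified by colony PCR, sequenced by MiSeq 2 × 250 and filtered by CDR length.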
row,Sequence,polyreactivity (PSR sort gate)
1,QVQLVESGGGLVQAGGSLRLSCAASGRIFQRYAMGWYRQAPGKERELVAAISKNGGRTYYADSVKGRFTISRDNAKNTVYLQMNSLKPEDTAVYYCNKGTAGYEYAAFDYWGQGTQVTVSS,low polyreactivity
2,QVQLVESGGGLVQAGGSLRLSCAASGLTFPSNAMGWYRPAPGKERELVAAISKRGGRTYYADSVKGRFTISRDNAKNTVYLQMNSLKPEDTAVYYCATPYAYPGTVQYAGYNYWGQGTQVTVSS,high polyreactivity
3,QVQLVESGGGLVQAGGSLRLSCAASVFTFSPNAMGWYRQAPGKERELVAAISKRGASTYYADSVKGRFTISRDNAKNTVYLQMNSLKPEDTAVYYCNVGASARKPYDYWGQGTQVTVSS,high polyreactivity
4,QVQLVESGGGLVQAGGSLRLSCAASGGTFGTYAMGWYRQAPGKERELVAAITYRGGRTYYADSVKGRFTISRDNAKYTVYLQLDCVKPEDSAVYYCAKDVRGHRHPYSLRDYWGEGTQVTVSS,high polyreactivity
5,QVQLVESGGGLVQAGGSLRLSCAASGSIFPGYAMGWYRQAPGKERELVADITSGDTTKYADSVKGRFTISRDNAKNNVYLQMNSLKPEDTAVYYCAADDYLTDFDYWGQGTQVTVSS,low polyreactivity
6,QVQLVESGGGLVQAGGSLRLSCAASGGILRDYAMGWSRQAPGKERELVAAISRGGRTNYADSVKGRFTISRDYSKNTVYLQLNSLKPEDTAVYYCAKRYARGENDYWGQGTQVNVSS,high polyreactivity
7,QVQLVESGGGLVQAGGSLRLSCAASGFIFSKYGMGWYRQAPGKERELVAAISIRGGNTYYADSVKGRFTISRDNAKNTFYLQMYSLKPEDTAVYYCAAGLRAYPYGTRSGVYYYWGQGTQVTVSS,high polyreactivity
8,QVQLVESGVGLVQAGGSLRLICAATGYTFKRTAMRWSRQAPGKEREFVAAINIRGSSTYYADSVKGRFTISRDNPKNTVYLQMISLKPEDTAVYYCNAVTRYGYYWGEGTQVTVSS,high polyreactivity
9,QVQLVESGGGLVQAGGSLRLSCAASGITIVWYAMGWYRLAPGKEREFVASISWRGGTTYYADSVKGRFTISRDNAKNTVDLQMNSLKPEDTAVYYCAARTRWWYRYDYWGQGTQVTVSS,high polyreactivity
10,QVQLVESGGGLVQAGGSLRLSCAASGSIFGPNAMRWYRQAPGKERELVAAINGGTGTFYADSLKGRFTISRDNAKNTVYLQMNSLKPEDTAVYYCAADYGTHYFVRYYYWGQGTQVTVSS,high polyreactivity
11,QVQLVESGGGLVQAGGSLRLSCAATGSIFRRYAMGWYGQAPGKERELVAAISWSGGSTYYADSVKGRFTISRDNAKNTVYLQMNSLKPEDTAVYYCAARHRQQKLDYWGQGTQVTVSS,high polyreactivity
12,QVQLVESGGGLVQAGGSLRLSCAASDTPSSSMLMGWYRQAPGKERELVAAISGSDGTTYYADSVKGRFTISRDNAKNTVYLQMNSLKPEDTAVYYCAADDRVDSGYIKDDYWGQGTQVTVSS,low polyreactivity
13,QVQLVESGGGLVQAGGSLRLSCAAYGRIFYAYAMGWYRQAPGKERELVAAITNGGGTTYYADSVKGRFTISRDNAKNTVYLQMNSLKPEDTAVYYCNAVRYTIAHGFYYVPEDYWGQGTQVTVSS,low polyreactivity
14,QVQLVESGGGLVQAGGRLRLSCAASGRIFGINVMGWYRQAPGKERELVARITGRGGRTYYADSVKGRFTISRDNAKNTVYLQMNSLKPEDTAVYYCAADASYEAYDYWGQGTQVTVSS,high polyreactivity
15,QVQLVESGGGLVQAGGSLRLSCAASGSTFSYNAMGWYRQAPGKERELVAAINLRGGNTYYADSVKGRFTNSRDNAKNTVYLQMNSLKPEDTAVYYCARTRRHSQTFDYWGQGTQVIVSS,high polyreactivity
16,QVQLVESGGGLVQAGGSLRISCAASGGTFQAYAMGWYRPAPGKERELVAAITRRGTRTYYADSVKGRFTISRDNAKNTVYLQMNSLKPEDTAVYYCAAVRYPNWYDYWGQGTQVTVSS,high polyreactivity
17,QVQLVESGGGLVQAGGSLRLSCAASGSIFYEYAMGWYRQAPGKERELLASINRGGGSTYYADSVKGRFTISRDNAKNTVYLQMNSLKPEDTAVYYCAAQWKYRQSYLDYYWGQGTQVTVSS,low polyreactivity
18,QVQLVESGGGLVQAGGSLRLSCAASGRTFGDYAMGWSRQAPGKERELVAAIDVDGGSTYYADSVKGRFTISRDNAKNTVYLQMNSLKPEDTAVYYCNAQAPYWFSFYSDHKYDYWGQGTQVTVSS,low polyreactivity
19,QVQLVESGGGLVQAGGSLRLSCAATGLTFSTNTMGWYRQAPGKEREFVAAITARGGRTYYADSVKGRFTISRDNAKNTVYLQMNCLKPEDTAVYYCAANAYTYYARIGFDYWGQGTQVTVSS,high polyreactivity
20,QVQLVESGGGLVQAGGSLRLSCAASGRTFGLYAMGWYRQAPGKETELVAAISSSGGSTYYADSVKGRFTISRDNAKNTVYLQMNSLKPEDTAVYYCAKYRRVGYLYDYWGQGTQVTVSS,high polyreactivity
21,QVQLVESGGGLVQAGGSLRLSCAASGSTFRYYVMGWYRQAPGKERELVAAISRTGGRTYYADSVKGRFTISRDNAKNTVYLQMNSLKPEDTAVYYCAARNVTTKRYYYWGQGTQVTVSS,high polyreactivity
22,QVQLVESGGGLVQAGGSLRLSCAASGRIIYTYAMGWYRQAPGKERELVAAISWSGGSTYYADSVKGRFTISRDNAKNTVYLQMNSLKPEDTAVYFCNAAYYGYENLSKRGYWGQGTQVTVSS,high polyreactivity

row,Sequence,polyreactivity (PSR sort gate)
1,QVQLVESGGGLVQAGGSLRLSCAASGRTFRWNAMGWYRQAPGKERELVASITVNGGSTSYADSVKGRFTISRDNAKNTVYLQMNSLKPEDTAVYYCNAYYTYWYPRYDYWGQGTQVTVSS,low polyreactivity
2,QVQLVESGGGLVQAGGSLRLSCAASGSTFYAYAMGWYRQAPGKERELVAAISGSGGRTYYADSVKGRFTISRDNAKNTVYLQMNSLKPEDTAVYYCAASLTSRLPDPPRYYWGQGTQVTVSS,high polyreactivity
3,QVQLVESGGGLVQAGGSLRLSCAASGRIFTYNAMGWYRQAPGKERELVASINLDGDSTYYADSVKGRFTISRDNAKKTVYLQMNSLKTEETAVYYCAVPGATSYFAYDSWGQGTQVTVSS,low polyreactivity
4,QVQHVESGGGLVQAGGSLSLSCAASGSTFKHYAMGWYRQAPGKERELVAAISSRGGSTHYADSVKGRFRISRDNAKNTVYLQMNSLKPEDTAVYYCARDTDPQSSRSSDYDYWGQGTQVTVSS,low polyreactivity
5,QVQLVESGGGLVQAGGSLRLSCAASGSIFNEYAMGCYRQAPGKERELVAAISTSGDITYYADSVKGRFTISRDNAKNTVDLQMNSLKPEDTAVYYCAAKYSLLRQYNRLDSWGQGTQVTVSS,low polyreactivity
6,QVQLVESGGGLVQAGGSLRLSCAASGSTFTSNAMGWYRQAPGKEREFVAAISVGGGITYYADSVKGRFTISRDNAKISVYLQMNSLKPEDTAVYYCAADGEYPHSEDFEYWGQGTQVTVSS,low polyreactivity
7,QVQLVQSGGCLVQAGGSLRLSCSASGSIFVHHDMGWYRQAPGKERELVAAISWGGGRTYYADSVKGRFTISRDNAKNTVYLQMNSLKPEDTAVYYCAVDGGEFSSYGYWGQGTQVTVSS,low polyreactivity
8,QVQLVESGGGLVQAGGSHRLICAASGFIVSYHAMGWYRPAPGKESELVAAISSRGGSTYYADSVKGRFTISRDNAKNTVYLQMNSLKPEDTAVYYCATAGLTYRALRYYWGQGTQVTVSS,high polyreactivity
9,QVQLVESGGGLVQAGGSLRLSCAASGSTFYAYAMGWYRQAPGKERELVAAISSDGSTNYADSVKGRFTISRDNAKNTVYLQMNSLKPEDTAVYYCAADDNGAWVRMDYWGQGTQVTVSS,low polyreactivity
10,QVQLVESGGGLVQAGGSLRLSCAASGSTFSGKAMGWYRQAPGKERELVAAITSSGGSTYYADSVKGRFTISRDNAKNTVYLQMNSLKPEDTAVYYCAAKSRRTRRSYYWGQGTQVTVSS,high polyreactivity
11,QVQLVETGGGLVQAGGSLRLSCAASGRTFWTNAMGWYRQPPGKEREFVAAISWRGASTFYADSVKWRFTISRDNAKNTVYLQMNSLIPEDTAVFYCAAQSRTRSFYGKYDSWGQGNQVTVSS,low polyreactivity
12,QVQLVESGGGLVQAGGSLRLSCAASGRSFVGNAMGWYRQAPGKERELVASITRGGRTNYADSVNGRFTISRDNAKNTVYLQMNSLKPEDTAVYYCNAPGVTRAYLVGYDYWGQGTQVTVSS,low polyreactivity
13,QVQLVESGGGLVQAGGSLRLSCAASGRIFSPYAMGWYRQATGKERELVAAIDWDGGGTYYADSVKGRFTISRDNAKNTVYLQMNSLKPEDTAVYYCAAETDLANGTSPSDYWGQGTQVTVSS,low polyreactivity
14,QVQLVESGGCLVQAGGSLRLSCAASGYTFVHYDMGWYRQAPGKEREFVAAISGATYYADSVTGRFTISRDNAKNTVYLQMNSLKLEDTAVYYCNAYAYVESPSDMDYWGQGTQVTVSS,low polyreactivity
15,QVQLVESGGGLVQAGGSLRLSCAASGSTFHRYTMGWYRQAPGKERELVAAISSGGRTYYADSVKGRFTISRDNAKNTVYLQKNSLKPEDTAVYYCNSRYPRQYWGGYDYWGQGTQVTVSS,high polyreactivity
16,QVQLVESGGGLVQAGGSLRLSCAASGRIFVTNAMGWYRQAPGKERELVAAISYRGGRTYYADSVKGRFTISRDNAKNTVYLQMNSLKPEDTAVYYCNAVTRWPFDYWGQGTQVTVSS,high polyreactivity
17,QVQLVESGGGLVQAGGSLRISCAASGSTFYRYPMAWYRQAPGKERELVAAISGSGGRTYYADSVKGRFTISRDNAKNTVYLQMNSLKPEYTAVYYCATRFGQRSDYWGQGTQVTVSS,high polyreactivity
18,QVQLEESGGGLVQAGGSLRLSCAASGRIFGWYTMGWYRQAPGKERELVAAINFSGSRTYYADSVKGRFTISRDNAKNTVYLQMNSLKPEDTAVYYCNAVYHQFREEYWGQGTQVTVSS,high polyreactivity
19,QVQLVESGGGLVQAGGSLRLSCAASGSTFWSNVMGWYRQAPGKESELVSAISYGGVTTSYADSVKGRFTISRDNAKNTVYLQKNSLKPEDTAVYYCATDYVGYYFYVSDYWGQGTQVTVSS,low polyreactivity
20,QVQLVESWGGLFQAGGTLRLSCAASGRTFIGYDMEWYRQAPGKERELVATISWNGADTYYADSVKGRYTISRDNAKNTVYLKMNSLKPEDTEVYYCAAERENGDHYRYYYWGQGTQVTVSS,low polyreactivity
21,PVQLVESGGGLVQAGGSLRLSCAASGRTYYTNAIGWYRQAAGNVRELVAAITGDGTSTYYADSVKGRFTMSRDNATYTVFLQINSLKPEDTAVYYCAATGGDRYEAYSYWGQGTQVTVSS,low polyreactivity
